PMC3887256

Target: TAP-tagged human presenilin 1 (human) (UniProt P49768)
Experiment: SEC-MALS; TAP-purified PS1 complex on Superdex S-200 10/300 in Tris buffer with 0.1% digitonin; protein and detergent masses by conjugate analysis; complex co-purified from cells

“anterior pharynx 1 (aph1) (from UniProt Q96BI3 1-265) (natural protein)” gave a stoichiometry N of 1.
